Reference: the nanobody polyreactivity screen of Harvey et al. (2022)

Assay: yeast display, Sf9 membrane polyspecificity reagent, FACS + sequencing; frameworks hold sequencing errors
Method in brief: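 A synthetic nanobody library was expressed on Saccharomyces cerevisiae BJ5465 by galactose induction for 36–48 hours. The library was stained for 1 hour at 4 °C with 10% biotinylated, detergent-solubilized Sf9 membrane reagent and enriched with streptavidin microbeads before FACS. Low and high (top ~1%) gates were set on anti-HA fluorescence for expression and streptavidin fluorescence for reagent binding, and each polyreactivity label reflects the gate of origin.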

QDQLVESGVGLVQAGGSLRLSCAASGRIFGRYSMGWYRQAPGKEMEFVAAISKRGGGTYYADSVKGRFTISRDNAKNTVYLQMNSLKPEDSAVYYCAVDNSPGFDDYDYWGQGTQVTVSS
polyreactivity (PSR sort gate): high polyreactivity

QVQLVESGGGIYKAGGSLRLSCAASGSIIKINTLGRYRQAPRKERELVAAISTRGGSTYYADSVKGRFTISRDNSKNTVYLQMNSLKPDDTAVYFCAARQFYKYYYWGQGTQVTVSS
polyreactivity (PSR sort gate): high polyreactivity

QVQLVESGGGLVQARGSLRLSCAASGSTFLFYAMGWYRQPPGKERELVAAISRGDSTYYAESVKGRFTISRDIAKNTVYLQMNSLKPEDTAVYYCAAGYNHLYVYRMYYWGQGTQVTVSS
polyreactivity (PSR sort gate): high polyreactivity

QVQLVESGGGLVQAGGSLRLSGAASGRTFVYYAMGWYRQAPGKEREFVAAISRSGGRTSYADSVKGRFTISRDNAKNTVYLQMNSLKPEDTAVYDCAKRPQFFWSHPYDYWGQGTLVTVSS
polyreactivity (PSR sort gate): high polyreactivity

QVQLVESGGGLVQAGGSLRLSCAASGRTFERYAMGWYRQAPGKERELVAAISSIGGSTYYADSVKGRFTISRDNAKNTVYLQMNSLKPEDTAVYYCADSVFYYASRYDYWGQGTKVTVSS
polyreactivity (PSR sort gate): low polyreactivity

QVQLVESGGGLVQAGGSLRLSCAASGSIFSWYTMGWYRQAPGKERELVAAISRRGGSTYYADSVKGRFTISRDNAKNTVFLQMNSLKPEDNAVYYCAAAHPATRYDYWGQGTQVTVSS
polyreactivity (PSR sort gate): high polyreactivity

QVQLVESGGGLVQAGGILRLSCAASGRILVSYAMGWYRQAPGKERELVAAISRSGGSTYYADSVKGRFTISRDNAKNTVYLQMNSLKPEDTAVYYCNVYRFSRYDYWGQGTQVTVSS
polyreactivity (PSR sort gate): high polyreactivity

QVQLVESGGGLVQSGGSLRLSCAASGSIFNLYAMGWYRQAPGKERELVAAINWSGGSTYYADSVNGRFTISRDNAKNTVYLQMNRLKPEDTAVSYCAADAYSTYYGYEGVYWGQGTQVTVSS
polyreactivity (PSR sort gate): low polyreactivity

QVQLVVSGGGLVQAGGSLRLSCAASGSIFVSNAMGWYRQAPGKEREFVAAITGSGGSTYYADSVKGRFPISRDNAKNTVYLQMNSLKPEDTAVYYCNAGLIHFYAGNYDLYDYWGQGTQVTVSS
polyreactivity (PSR sort gate): low polyreactivity

QVQHVESGGGLVQAGGSIRLSGAASGRIILGYDMGWYRQPPGKDRELVAAINSVASTNYADSVKGRFTISRDNAKNTVYLQMNSLKPEDTAVYYCAAVYFLVEADLPAYDYWGQGTQVTVSS
polyreactivity (PSR sort gate): low polyreactivity

QVQLVESGGGLVQAGGSLRLICAASGIIFATYAMGWYRQAPGKERELVAVISNDGSTHYADSVKGRFTISRDNAKNTVYLQMNSLKPEDTAVYYCAARYPYDWRHDYWGQGTQVTVSS
polyreactivity (PSR sort gate): low polyreactivity

QVQLLESGVGLVQAGGSLRLSCAASGFSFGAYTLGWYRQAPRKERELVAAIRGSGGSTYYADSVKGRFTISRDNAKNTVYFQINSLKPDDTAVYYCAKTLTYGFRRYDYWGQGTQVTVSS
polyreactivity (PSR sort gate): high polyreactivity

QVQLVESGGGLVQAGGSLRISCAASGSIFWRYVMGWYRPAPGKERELIAAISSGGGITYYADSVKGRFTISRDNAKNTVYLQMNSLKPEDTAVYYCAARTYRGQYYTGFGFGYWGQGSQVTVSS
polyreactivity (PSR sort gate): high polyreactivity

QVQLVESGGGLVQAGGSLRLSCAASGRIFFRYAMGWYRQAPGKEREFVAAISCTGGSTYYADSVKGRFTISRDNAKNTVYLQMNSLKPEDTAVYYCAASVVSRPTYYAYYYWGQGTQVTVSS
polyreactivity (PSR sort gate): high polyreactivity

QVQLVESGGGLVQAGGSLRLSCAASGRTFKGYAMGWYRQAPGKERELVAAISYRGGSTYYADSVKGRFTISRDKAKKTFYLQMNSLKPEDTAVYYCAADIQPYVYDGYPVGMDYWGQGTQVTVSS
polyreactivity (PSR sort gate): high polyreactivity

QVQLVESGGGLVQAGGSLRLSCAASGSILLYYTMGWYRQAPGKERELVASITSGGRTYYADSVKGRFTISRDNAKNTVYLQMNSLKPEDTAVYFCAADVWKLYDYWGQGTQVTVSS
polyreactivity (PSR sort gate): low polyreactivity

QVQLVESGGGLVQAGGSLRLSFAASGRIFRSYAMGWYRQAPGKERELVAAITSGGSTYYADSVKGRFTISRDNAKNTVYLQLNSLKPEDTAVYYCNADYDVSSPRPAFDYWGQGTQVTVSS
polyreactivity (PSR sort gate): low polyreactivity

QVQLVESGGGLVQAGGSLRLSCAASGRTFRYYAMGWYIQAPGKERELVAAISWRGGSTYYAYSVKGRFTLSRDYAKNTVYLQINSLKPEDTAVYYCAAGILFGHYDYWGQATQVTVSS
polyreactivity (PSR sort gate): high polyreactivity

QVQLVETGGGLVQAGGSLRLSCAASGLILGGYAMGWYRQAHGKERELVAAITRGGGSTFYADSVKGRFTISRDNAKNTVYLQMNSLKPEDTAVYYCAKRYPYRPPGPRYRGLSGYVYWGQGTQVTVSS
polyreactivity (PSR sort gate): high polyreactivity

QVQLVESGGGLVQAGGSLRLSCAASGFIFVLNAMGWYRQAPGKERELVAAIRWSGGSTYYADSVKGRFTISRDNAKNTVYLQMNSLKPEDTAVYYCAARLWLKVQYLRFFGYDYWGQGTQVTVSS
polyreactivity (PSR sort gate): low polyreactivity

QVQLVESGGGLVQAGGSLRLSCAASGSTFYKYAMGRYREAPRKERELVASISRSGGSTSYADSVTGRFTISRDNAKNTVYLQMNSLTPEDTAVYYCAATWRQHPGSMGYWGQGTQVTVSS
polyreactivity (PSR sort gate): high polyreactivity

QVQLVESGGGLVQAGGSLRLSCAASGRTFKGNAMGWYRQAPGKEIELVAAISKSGGRTYYADSVKGRFTISRDNAKNTVYLQMNSLKPEDTAVYYCAVDVGPTKVRFGYLGQGTQVTVSS
polyreactivity (PSR sort gate): high polyreactivity

QVQLVESGGGLVQAGGSLRLSCAASGRTFYRNAMGWYRQAPGKERELVAAISSGGSTTYADSVKGRFTISRDNAKNTVYLQMNSLKPEDTAVYYCAARSHAGSVSPRLKEYDYWGQGTQVTVSS
polyreactivity (PSR sort gate): low polyreactivity

QVQLVESGGGLLQAGGSLRLSCSATGSLFEGNGMGWYRQAPGKERELVASITRSGGSTYYADSVKGRFTISRDNAKNTVYLQINSLIPEDTAVYYCAAYPVRYYNQYDYWGLGTQVTVSS
polyreactivity (PSR sort gate): low polyreactivity

QVQLVESGGGLVQAGGSLRLSCAASGSIFKYYAMGWYRQAPGKERELVAAITWSGTRTYYADSVKGRFTISRDNAKNTVYLQMNSLKPEDTAVYYCNAPRYLYSAGRFNYWGQGTQVTVSS
polyreactivity (PSR sort gate): high polyreactivity

QVQLVESGGVLVQAGGSLRLSCAASGRTLRWYAKGWYRPAPGKERELVAAINWSGTSTYYADSVKGRFTISRDNAKNTVYLQMNSLKPEDTAVYYCAKRVTWNYDWGQGTQVTVSS
polyreactivity (PSR sort gate): high polyreactivity

QVQLEESGGGLVQAGGSLRLSSAASGRIFRAYAMGRYRQAPGKERELVAAITSGGGSTYYADSVKGRFTISRHNAKNTVYLQMNSLKPEDTAVYYSAAKSSRIAYSSWFYYATFDYWGQGTQVTVSS
polyreactivity (PSR sort gate): high polyreactivity

QVQLVESGGGLVQAGGSLRLSCAASGVTFRLDAMGCYRQAPGKDRELVAAISRSGTSTYYADSVKGRFTISRDNPKNTVYLHMNTRKPDDTAVYYCNTARYRYAWYTRYVSWGQGTQVTVSS
polyreactivity (PSR sort gate): high polyreactivity

QVQLVESGGGLVQAGGSLRLSCAASGLIFSRYTMGWYRQAPGKERELVAAISGRGTSTYYADSVKGRFTISRDNAKNTVYLQMNSLKPEDTAVYYCATSKSYSAFDYWGQGTQVTVSS
polyreactivity (PSR sort gate): high polyreactivity

QVQLVESGGGLVQAGGSLRLSCAASGNTLIQYAMGWIIQAPGKEREVLAGISGTDDSTYYADSVKGRFTISRDNAKNTVYFQMTSLKPEDRSVYYCATREWYDKYPNIYVSFDYWGQGTQVTVSS
polyreactivity (PSR sort gate): low polyreactivity

QVQLVESGGGLVQAGGSLRLSCADSGRLFYPYAMGWYTQAPGTERELVAAIRRSGVDTYYADSVKGRFTISRDNAKNTVYLQMNSLKPEDTAVYYCAADPYSFFPHYDSWGQGTQVTVSS
polyreactivity (PSR sort gate): low polyreactivity

QVQLVESGGGLVQAGGSLRLSCAASGFIFQKYAMGWYRQAPGKERELVAAIRYDGGSTYYADSVKGRFTISRDNAKNTVYLQMNSLKPDDTAVYYCAAYGPRLLIYPPYRYNYWGQGTQVTVSS
polyreactivity (PSR sort gate): high polyreactivity

QVQLVESGGGLVQAGGSLRLSCAASGSTFLTKAMGWNRQAPGKERELVAAISRSGGSTYYADSVKGRFTISRDNAKNTVYLQMNSLKPEDTAVYYGAAYSWRYQAWEFGYWGQGTQVTVSS
polyreactivity (PSR sort gate): high polyreactivity

QVQLVEAGGGLVQAGGSLRLSCAASGITCRNDAIGWYRQAAGKERELVADITTGGSTYADSVKGRFTISRDNAKNTVYLQLISLKPEDTAVYYFAADRDFRTPRLYYWGQGTQVTVSS
polyreactivity (PSR sort gate): low polyreactivity

QVQLVESGGGLVQAGGSLRLSCAASGITFYIYAMGWYRQSPGKERELVATISWSDGRTYYADSVKGRFTISRDNAKNTVYLLMNSLKPEDTAVYYCAADWWYYQFDYEYWGQGTQVTVSS
polyreactivity (PSR sort gate): low polyreactivity

QVQHVESGGGLVQAGGSLRLSCAASGFIFDCNTMGWYRQAPGKERELVATIDFSGTSTYYADSVKGRFTISRDNAKNTVYFQMNSLKPEDTAVYYCNAVRSGWGYFFCLNYWGQGTQVTVSS
polyreactivity (PSR sort gate): low polyreactivity

QVQLVESGGGLVQAGGSLRLSCAASGFTFYVYARGWYRQAPGKERQLVAAISRSGGSTYYADSVKGSFTISRDNAKNTVYLQMQSLKPEDTAVYYCAVVQRYWYPGIVPYDYWGQGSQVTVSS
polyreactivity (PSR sort gate): high polyreactivity

QVQLVESGGGLVQAGGSLRLSCAASGITFVGYAMGWYRQAPGKERELVAVINTSSSTYYADSVKGRFTISRDNAKNTVYLQLNSLKPEATAVYYCGVRGRYYYRRPQISYEYWGQGTQVTVSS
polyreactivity (PSR sort gate): low polyreactivity

QVQLVESGGGLVQAGGSLRLSCAASGSTYIDYAMGWYRQAPGKERELVASIRYSGGGTYYADSVKGRFTISRDNAKNTVYFQMNSLKPEDTAVYYCAKDTHLLNEHSGTSREYDYWGQGTQVTVSS
polyreactivity (PSR sort gate): low polyreactivity

QVQLVESGGGLVQAGGSLRLTCAASGFTFRYYTMGWYRQAPGTERELVARISNRGGSTYYADSVKGRFTISRDNAKNTVYLQMNSLKPEDTAVFYCAAARRYYTYYREDYYYWGQGTQVTVSS
polyreactivity (PSR sort gate): high polyreactivity

QVQLVESGGGLVQAGGSLRLICAASAFNFRYYVMGWYRQAPGKERELVAVISYSGGSTYYADSVKGRFTISRDNAKNTVYLQRNSMKPEDTAVYYCDARYYVATSSIYYYWGQGTQVTVSS
polyreactivity (PSR sort gate): high polyreactivity

QVQLVESGGGLVQAGGSLRLSCAASGLTFTYYAMGWYRQAPGKERELVAAISSSGSDTYYADSVKGRFTISRDNAKNTVYLQMNSLKPEDTAVYYCAAVLTALSPDFEYEYWGQGTQVTVSS
polyreactivity (PSR sort gate): low polyreactivity

QVQLVESGGGLVQAGGSLRLTCAASGSTFVRYAMGWYRQAPGKERELVATIRRVGSTNYADSVKGRFTISRDNAKNTVYLQMNSLKPEDTEVYYCAARSLRYGRGMYYWGQGTQVTVSS
polyreactivity (PSR sort gate): high polyreactivity
